Measured values: PMC6355197

Target: afTMEM16 scramblase from Aspergillus fumigatus (Aspergillus fumigatus)
Assay: cryo-EM structure; afTMEM16 in MSP1E3 nanodiscs of 3 POPE:1 POPG; three samples: 0.5 mM Ca2+, Ca2+-free (5 mM EDTA), 0.5 mM Ca2+ with 5 mole% C24:0 ceramide; buffer D (150 mM KCl, 50 mM Tris pH 8.0); maps refined in C1 and C2

**Q.** For “afTMEM16 scramblase from Aspergillus fumigatus (natural protein)”, which stoichiometry N is on record?
**A.** 2
